Experimental data from patent US20170014524A1 (CALIFORNIA INSTITUTE FOR BIOMEDICAL RESEARCH, published 2017).

B1: anti-CXCR4 IgG antibody HLCX (antibody, V domains shown)
VH: QVQLVESGGGLVQPGGSLRLSCAASGFNIKDTYIHWVRQAPGKGLEWVARIYPTNGYTRYADSVKGRFTISADTSKNTAYLQMNSLRAEDTAVYYCSRETKKYQSYRKCRGGRRWCYQKSYTYNYEDYWGQGTLVTVSS
VL: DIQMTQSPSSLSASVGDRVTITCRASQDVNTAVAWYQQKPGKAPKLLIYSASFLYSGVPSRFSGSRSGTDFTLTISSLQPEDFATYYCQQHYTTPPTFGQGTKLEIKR
B2: anti-CXCR4-NC-MMAE conjugate (antibody, human IgG1, kappa, V domains shown)
VH: B1 VH
VL: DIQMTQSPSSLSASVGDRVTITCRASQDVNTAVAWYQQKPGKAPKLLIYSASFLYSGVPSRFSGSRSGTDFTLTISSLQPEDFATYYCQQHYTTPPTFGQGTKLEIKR
modifications: MMAE on a non-cleavable linker coupled by NHS ester to surface-exposed lysine residues, non-specific; estimated DAR ~2-3
B3: anti-CXCR4-ValCit-MMAE conjugate (antibody, human IgG1, kappa, V domains shown)
VH: B1 VH
VL: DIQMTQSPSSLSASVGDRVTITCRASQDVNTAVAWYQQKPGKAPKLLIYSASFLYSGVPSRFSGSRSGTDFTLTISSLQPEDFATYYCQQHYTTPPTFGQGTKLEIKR
modifications: auristatin on a Val-Cit linker coupled by NHS ester to surface-exposed lysine residues, non-specific; estimated DAR ~2-3

Target: CXCR4 (C-X-C chemokine receptor type 4) (UniProt P61073 1-352, limits assumed)
Sequence (P61073 whole entry): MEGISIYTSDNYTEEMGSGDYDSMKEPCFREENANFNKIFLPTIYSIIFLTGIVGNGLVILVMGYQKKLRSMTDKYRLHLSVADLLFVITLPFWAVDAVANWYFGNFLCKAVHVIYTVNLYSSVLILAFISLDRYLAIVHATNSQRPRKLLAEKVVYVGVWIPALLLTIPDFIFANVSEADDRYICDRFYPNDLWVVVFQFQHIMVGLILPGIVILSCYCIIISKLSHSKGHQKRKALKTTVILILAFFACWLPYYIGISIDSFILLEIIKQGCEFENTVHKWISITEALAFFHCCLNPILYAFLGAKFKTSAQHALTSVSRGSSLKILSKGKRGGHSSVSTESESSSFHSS
Assay: cell-based or functional assay

| Binder | IC50 (nM), cytotoxicity, Ramos (CXCR4+) cells, CellTiter-Glo, 4 days [nM] | IC50 (nM), cytotoxicity, Jurkat (CXCR4+) cells, CellTiter-Glo, 4 days [nM] |
| --- | --- | --- |
| B1 | 89.4 | – |
| B2 | 0.89 | 4.6 |
| B3 | 2 | 9.2 |
